In patent publication US20040141978A1 (PHARMACIA AND UPJOHN, published 2004):

Assays:
[1] = target: Angiostatin + Binding Domain (UniProt P00747); experiment: cell-based or functional assay
[2] = target: p53 + Binding Domain; experiment: cell-based or functional assay
[3] = target: T1, ABP-1 (human, UniProt Q4VCS5 410-1084); experiment: fluorescence microscopy, FITC-labelled angiostatin (10 ug/ml) on live HeLa cells transfected with ABP-1
T1 construct: also called angiostatin receptor
T1 sequence: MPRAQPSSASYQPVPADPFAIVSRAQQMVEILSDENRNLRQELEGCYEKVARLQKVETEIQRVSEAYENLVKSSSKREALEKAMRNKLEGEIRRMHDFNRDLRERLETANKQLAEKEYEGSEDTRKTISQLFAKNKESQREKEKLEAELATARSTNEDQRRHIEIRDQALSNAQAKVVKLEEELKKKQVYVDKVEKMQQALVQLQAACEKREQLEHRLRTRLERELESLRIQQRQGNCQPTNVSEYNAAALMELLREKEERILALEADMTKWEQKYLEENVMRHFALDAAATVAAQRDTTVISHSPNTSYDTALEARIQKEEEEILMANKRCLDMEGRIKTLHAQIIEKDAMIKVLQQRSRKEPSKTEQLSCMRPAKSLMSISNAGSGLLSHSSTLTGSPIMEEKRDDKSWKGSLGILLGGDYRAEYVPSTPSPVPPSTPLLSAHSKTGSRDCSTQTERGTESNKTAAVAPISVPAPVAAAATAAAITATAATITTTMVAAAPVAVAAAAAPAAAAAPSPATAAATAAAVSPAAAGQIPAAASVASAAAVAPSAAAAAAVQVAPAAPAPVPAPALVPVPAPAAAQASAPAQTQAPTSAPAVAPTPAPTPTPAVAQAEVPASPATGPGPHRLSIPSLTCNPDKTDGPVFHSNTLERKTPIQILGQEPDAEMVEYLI

Sequence of Angiostatin + Binding Domain (P00747 whole entry, the tested form may be a part): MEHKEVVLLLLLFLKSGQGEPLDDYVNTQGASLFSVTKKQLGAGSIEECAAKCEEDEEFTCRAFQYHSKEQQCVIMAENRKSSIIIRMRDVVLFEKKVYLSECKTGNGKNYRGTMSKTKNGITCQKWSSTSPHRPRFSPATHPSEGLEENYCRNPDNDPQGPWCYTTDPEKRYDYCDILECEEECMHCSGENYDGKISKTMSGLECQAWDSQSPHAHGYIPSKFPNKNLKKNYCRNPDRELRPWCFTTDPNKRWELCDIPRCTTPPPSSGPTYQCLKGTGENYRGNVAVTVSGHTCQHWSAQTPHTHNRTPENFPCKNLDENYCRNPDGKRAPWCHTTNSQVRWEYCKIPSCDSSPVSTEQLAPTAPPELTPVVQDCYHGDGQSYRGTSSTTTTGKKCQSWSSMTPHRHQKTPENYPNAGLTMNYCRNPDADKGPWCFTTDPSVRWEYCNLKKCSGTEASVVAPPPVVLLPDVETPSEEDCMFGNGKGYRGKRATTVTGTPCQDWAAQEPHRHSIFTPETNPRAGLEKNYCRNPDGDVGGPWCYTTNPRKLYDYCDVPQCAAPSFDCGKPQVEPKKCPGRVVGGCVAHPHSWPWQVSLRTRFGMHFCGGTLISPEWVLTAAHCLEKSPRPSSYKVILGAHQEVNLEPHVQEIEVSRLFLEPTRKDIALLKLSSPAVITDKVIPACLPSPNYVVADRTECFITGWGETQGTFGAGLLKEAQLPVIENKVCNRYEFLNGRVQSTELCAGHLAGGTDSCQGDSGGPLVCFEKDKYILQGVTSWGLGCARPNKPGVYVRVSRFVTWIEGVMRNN

## Activation Domain alone (from UniProt P04386 768-881)
[1]
  β-Gal Activity: < 0.04 u

## SV40LT - Activation Domain (from UniProt P03070 84-708)
[2]
  β-Gal Activity: 90 u

B1: human angiostatin (kringle domains 1-4 of plasminogen) (ligand, UniProt P00747 99-459, looked up)
chain: YLSECKTGNGKNYRGTMSKTKNGITCQKWSSTSPHRPRFSPATHPSEGLEENYCRNPDNDPQGPWCYTTDPEKRYDYCDILECEEECMHCSGENYDGKISKTMSGLECQAWDSQSPHAHGYIPSKFPNKNLKKNYCRNPDRELRPWCFTTDPNKRWELCDIPRCTTPPPSSGPTYQCLKGTGENYRGNVAVTVSGHTCQHWSAQTPHTHNRTPENFPCKNLDENYCRNPDGKRAPWCHTTNSQVRWEYCKIPSCDSSPVSTEQLAPTAPPELTPVVQDCYHGDGQSYRGTSSTTTTGKKCQSWSSMTPHRHQKTPENYPNAGLTMNYCRNPDADKGPWCFTTDPSVRWEYCNLKKCSGTEA
modifications: FITC-labelled in the cell binding assay of FIG. 9C
notes: domain: kringle domains 1-4; Used unlabelled in the pull-down and kinase assays, FITC-labelled on transfected HeLa cells; also called K1-K4; FITC-labelled angiostatin
[3]
  binding result: binds
